Results from IntAct's records for PubMed 18555782.

Biological target: hsp7f_yeast SSE1 (UniProt P32589)
Sequence (P32589 whole entry): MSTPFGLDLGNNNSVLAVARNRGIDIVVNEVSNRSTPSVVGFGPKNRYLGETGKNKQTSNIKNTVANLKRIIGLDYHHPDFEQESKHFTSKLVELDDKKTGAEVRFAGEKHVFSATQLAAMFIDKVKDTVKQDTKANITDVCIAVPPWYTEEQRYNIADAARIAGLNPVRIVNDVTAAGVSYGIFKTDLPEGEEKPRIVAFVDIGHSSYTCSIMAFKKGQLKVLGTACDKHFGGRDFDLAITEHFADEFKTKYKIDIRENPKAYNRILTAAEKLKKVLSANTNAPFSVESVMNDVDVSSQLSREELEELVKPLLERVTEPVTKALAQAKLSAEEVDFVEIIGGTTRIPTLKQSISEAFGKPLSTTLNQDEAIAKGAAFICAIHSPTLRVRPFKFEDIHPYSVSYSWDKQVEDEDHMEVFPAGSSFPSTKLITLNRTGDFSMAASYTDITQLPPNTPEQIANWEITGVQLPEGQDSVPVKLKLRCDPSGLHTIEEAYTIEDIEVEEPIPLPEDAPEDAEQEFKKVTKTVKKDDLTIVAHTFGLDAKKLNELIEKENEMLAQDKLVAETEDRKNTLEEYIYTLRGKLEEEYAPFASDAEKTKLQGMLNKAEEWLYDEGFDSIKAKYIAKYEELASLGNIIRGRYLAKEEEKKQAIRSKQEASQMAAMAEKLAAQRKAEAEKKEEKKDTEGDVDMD

Row | Substance | effect of a mutation on the interaction
1 | Heat shock protein SSA1 (Saccharomyces cerevisiae), P10591 Q31A | decreasing interaction
2 | Heat shock protein SSA1 (Saccharomyces cerevisiae), P10591 A297E | decreasing interaction
